± gives the standard error.
B1: library; numbered along this chain (parent)
chain: MATDAALRRLLRLHRTEIAVAVDSAFPLLHALADHDVVPEDKFQETLHLKEKEGCPQAFHALLSWLLTQDSTAILDFWRVLFKDYNLERYGRLQPILDSFPKDVDLSQPRKGRKPPAVPKALVPPPRLPTKRKASEEARAAAPAALTPRGTASPGSQLKAKPPKKPESSAEQQRLPLGNGIQTMSASVQRAVAMSSGDVPGARGAVEGILIQQVFESGGSKKCIQVGGEFYTPSKFEDSGSGKNKARSSSGPKPLVRAKGAQGAAPGGGEARLGQQGSVPAPLALPSDPQLHQKNEDECAVCRDGGELICCDGCPRAFHLACLSPPLREIPSGTWRCSSCLQATVQEVQPRAEEPRPQEPPVETPLPPGLRSAGEEVRGPPGEPLAGMDTTLVYKHLPAPPSAAPLPGLDSSALHPLLCVGPEGQQNLAPGARCGVCGDGTDVLRCTHCAAAFHWRCHFPAGTSRPGTGLRCRSCSGDVTPAPVEGVLAPSPARLAPGPAKDDTASHEPALHRDDLESLLSEHTFDGILQWAIQSMARPAAPFPS

Variants of: B1
Assay: AIRE transcriptional activation functional score (insulin promoter-GFP; nonsense median 0, synonymous median 1) (normalised score); higher = higher AIRE activity (more reporter activation)
Settings: with insulin promoter-GFP reporter in HEK293
Protocol: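 Deep mutational scan of full-length human AIRE (codon-optimized cDNA, DT-POPCode NNN libraries over three regions) integrated at a Bxb1 landing pad in HEK293 cells carrying an insulin core promoter-GFP reporter at a Flp-In site. Cells were sorted for the top 10% GFP about 14 days after transfection. Variant frequency log-ratios (select vs non-select, TileSeq) were rescaled so that the nonsense median is 0 and the synonymous median is 1, then averaged over biological replicates.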

Variant | AIRE transcriptional activation functional score
K133D | 0.12 ± 0.12
L75K | 0.732 ± 0.062
A452D | 0.712 ± 0.14
A117Y | 1.76 ± 0.24
D515T | 0.0981 ± 0.33
L366G | 0.607 ± 0.32
A461M | 1.27 ± 0.037
P129V | 0.215 ± 0.2
P129I | 0.253 ± 0.74
G218C | 0.887 ± 0.22
G218Q | -0.344 ± 0.048
P233Q | 0.416 ± 0.16
L175S | 0.686 ± 0.34
D238Y | 1.12 ± 0.07
D238N | 0.588 ± 0.26
D238M | 0.876 ± 0.11
K165V | 0.921 ± 0.66
E329G | 0.92 ± 0.3
I224F | 0.959 ± 0.2
M388Y | -0.0355 ± 0.024
M388L | 1.17 ± 0.24
R9F | -0.124 ± 0.19
A145G | 1.29 ± 0.35
L320E | 1.22 ± 0.23

Variant | AIRE transcriptional activation functional score
F59E | 0.561 ± 0.19
E298L | 0.839 ± 0.34
E298W | 1.13 ± 0.15
S338G | 1.11 ± 0.23
S338Y | 1.11 ± 0.13
S338L | 1.01 ± 0.18
A404D | 0.792 ± 0.33
S464Y | 1.23 ± 0.052
G527W | 0.875 ± 0.1
K111S | 1.18 ± 0.35
K111I | 1.36 ± 0.14
F26M | -1 ± 0.31
I181V | 0.788 ± 0.34
I181K | 0.076 ± 0.41
H35D | -0.476 ± 0.17
P360G | 1.16 ± 0.16
P360H | 1.1 ± 0.13
A451E | 1.02 ± 0.12
A352Y | 0.899 ± 0.35
V393E | 0.991 ± 0.2
L511T | 0.121 ± 0.18
L511C | 0.201 ± 0.42
K501F | 1.17 ± 0.085
K501I | 0.714 ± 0.37

Variant | AIRE transcriptional activation functional score
E375R | 1 ± 0.32
E375A | 1.18 ± 0.045
L210I | 0.93 ± 0.09
L210W | 0.57 ± 0.062
G467F | 1.29 ± 0.12
P481F | 1.16 ± 0.26
L177K | 1.09 ± 0.27
L177P | 0.397 ± 0.62
Y90I | -0.0337 ± 0.25
P56L | -0.0629 ± 0.36
R132K | 0.0662 ± 0.16
A450Y | 0.311 ± 0.12
G408P | 0.97 ± 0.31
G408S | 1.03 ± 0.31
L488C | 0.742 ± 0.29
S474A | 0.936 ± 0.28
Q44G | 0.0554 ± 0.5
A144R | 0.836 ± 0.55
C314W | 0.709 ± 0.011
C314G | 0.862 ± 0.088
R356I | 1.03 ± 0.14
Q213E | 0.718 ± 0.36
Q213G | 0.977 ± 0.42
G440Q | 1.15 ± 0.066

Variant | AIRE transcriptional activation functional score
M194P | 0.602 ± 0.37
R139Y | 1.25 ± 0.39
P544S | 0.867 ± 0.39
G178L | 1.58 ± 0.25
L516C | 0.678 ± 0.055
Q349A | 0.994 ± 0.27
V226Q | 0.554 ± 0.093
I96K | 0.201 ± 0.52
I96C | -0.194 ± 0.18
R513T | 1.17 ± 0.29
Q530T | 1.05 ± 0.1
G219Q | 0.0466 ± 0.058
S239M | 1.69 ± 0.09
S239K | -0.0573 ± 0.21
G197R | 1.01 ± 0.3
C299V | 0.501 ± 0.26
E296H | 1.76 ± 0.052
P95A | 1.12 ± 0.54
T72S | 0.667 ± 0.79
T72R | 0.0611 ± 0.49
E363G | 1.02 ± 0.078
Q275Y | 1.35 ± 0.22
P460C | -0.358 ± 0.13
P416C | 1.46 ± 0.03

Variant | AIRE transcriptional activation functional score
R149P | 0.874 ± 0.47
P380W | 1.39 ± 0.063
P380G | 0.801 ± 0.37
H48P | -0.897 ± 0.77
H48Y | 1.23 ± 0.53
D4P | -0.0888 ± 0.36
D4V | 0.202 ± 0.24
G267S | 0.894 ± 0.4
S169V | 1.35 ± 0.67
S169K | 1.77 ± 1.8
E237I | 0.885 ± 0.075
T46D | -0.445 ± 0.23
T46F | -1.2 ± 0.75
D23Q | -0.673 ± 0.46
D23A | -0.24 ± 0.37
D23C | -0.0222 ± 0.1
G369N | 1.1 ± 0.061
L418C | 1.16 ± 0.12
A61S | 1.48 ± 0.25
R433V | 0.599 ± 0.19
R433E | 1.39 ± 0.07
V279H | 1.06 ± 0.055
K102I | 1.56 ± 0.26
K102T | 1.28 ± 0.56

Variant | AIRE transcriptional activation functional score
R371I | 0.173 ± 0.21
C322F | 0.737 ± 0.15
L106F | 0.883 ± 0.41
S287V | 0.972 ± 0.26
H458M | 0.387 ± 0.26
A500Y | 0.944 ± 0.44
A500G | 0.758 ± 0.27
Q189K | 0.969 ± 0.27
Q189S | 1.21 ± 0.26
K243V | 0.856 ± 0.35
E307H | 1.11 ± 0.061
Q358C | 0.97 ± 0.14
R190T | 0.755 ± 0.15
R190N | 1.15 ± 0.13
A25C | 0.493 ± 0.17
V188L | 1.24 ± 0.23
C475W | -0.0091 ± 0.044
Q57G | -0.774 ± 0.8
I309A | 0.827 ± 0.29
V443E | 1.12 ± 0.15
M536I | 1.19 ± 0.15
P289D | -0.468 ± 0.061
R494H | 1.7 ± 0.12
R494G | 0.344 ± 0.28

Variant | AIRE transcriptional activation functional score
V436H | 0.883 ± 0.41
E383M | 0.564 ± 0.24
E383Y | 1.27 ± 0.42
L7I | 0.982 ± 0.18
T16G | 0.0399 ± 0.37
E359L | 1.01 ± 0.22
D105V | 0.6 ± 0.28
A246C | 1.22 ± 0.087
A246G | 0.693 ± 0.25
T147H | 1.22 ± 1.1
P499I | 1.18 ± 0.57
P499D | 0.797 ± 0.37
P499C | 0.764 ± 0.15
S332E | 0.387 ± 0.16
L67I | 0.391 ± 0.42
Q425F | 1.13 ± 0.33
A505P | 1.01 ± 0.39
D34T | -1.22 ± 0.19
S476M | 0.943 ± 0.047
R272H | 0.444 ± 0.15
P497K | 0.828 ± 0.14
A31S | 0.0612 ± 0.88
A31F | -0.218 ± 0.19
